In the supplement of paper PMC10065799, “High-throughput profiling of sequence recognition by tyrosine kinases and SH2 domains using bacterial peptide display” (eLife, 2023):

Tests used:
AncSZ = assay: phosphorylation enrichment, bacterial display (enrichment ratio); higher = better substrate or ligand; peptides without Tyr show the background
EPHB1 = EPHB1 (UniProt P54762); assay: as above
EPHB2 = EPHB2 (UniProt P29323); assay: as above
FGFR1 = FGFR1 (UniProt P11362); assay: as above
FGFR3 = FGFR3 (UniProt P22607); assay: as above
Fer (mouse) = assay: as above
Fes = Fes (UniProt P07332); assay: as above
Fyn = Fyn (UniProt P06241); assay: as above
Fyn, sequence (P06241 whole entry, looked up): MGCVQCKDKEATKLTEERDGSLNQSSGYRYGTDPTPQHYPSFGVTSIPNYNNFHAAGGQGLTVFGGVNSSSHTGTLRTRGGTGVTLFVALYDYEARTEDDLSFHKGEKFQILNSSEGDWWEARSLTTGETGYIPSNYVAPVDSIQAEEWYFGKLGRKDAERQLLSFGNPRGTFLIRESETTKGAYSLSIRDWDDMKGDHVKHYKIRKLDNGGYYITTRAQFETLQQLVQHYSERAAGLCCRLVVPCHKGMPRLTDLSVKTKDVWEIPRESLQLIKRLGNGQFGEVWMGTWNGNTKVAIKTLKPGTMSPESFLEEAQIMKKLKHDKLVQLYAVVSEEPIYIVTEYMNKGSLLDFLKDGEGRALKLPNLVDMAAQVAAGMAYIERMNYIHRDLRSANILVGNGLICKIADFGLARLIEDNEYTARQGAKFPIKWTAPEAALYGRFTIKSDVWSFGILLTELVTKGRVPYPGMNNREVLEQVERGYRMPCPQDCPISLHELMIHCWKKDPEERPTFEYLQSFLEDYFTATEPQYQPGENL

Hck = Hck (UniProt P08631); assay: as above
Hck, sequence (P08631 whole entry, looked up): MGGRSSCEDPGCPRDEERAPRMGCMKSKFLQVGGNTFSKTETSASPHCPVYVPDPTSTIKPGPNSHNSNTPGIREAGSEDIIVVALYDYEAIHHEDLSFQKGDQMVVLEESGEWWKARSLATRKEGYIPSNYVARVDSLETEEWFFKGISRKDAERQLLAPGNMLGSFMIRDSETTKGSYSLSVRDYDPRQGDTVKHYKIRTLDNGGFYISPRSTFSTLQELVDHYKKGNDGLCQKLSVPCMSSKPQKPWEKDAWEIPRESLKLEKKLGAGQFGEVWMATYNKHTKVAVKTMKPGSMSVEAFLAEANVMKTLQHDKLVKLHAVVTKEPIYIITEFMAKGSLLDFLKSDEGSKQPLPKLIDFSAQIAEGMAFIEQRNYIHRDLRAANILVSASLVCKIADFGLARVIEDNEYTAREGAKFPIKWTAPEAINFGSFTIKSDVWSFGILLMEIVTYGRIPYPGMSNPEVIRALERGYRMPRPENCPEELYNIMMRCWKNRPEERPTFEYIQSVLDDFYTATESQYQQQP

Jak2 = Jak2 (UniProt O60674); assay: as above
Jak2, sequence (O60674 whole entry, looked up): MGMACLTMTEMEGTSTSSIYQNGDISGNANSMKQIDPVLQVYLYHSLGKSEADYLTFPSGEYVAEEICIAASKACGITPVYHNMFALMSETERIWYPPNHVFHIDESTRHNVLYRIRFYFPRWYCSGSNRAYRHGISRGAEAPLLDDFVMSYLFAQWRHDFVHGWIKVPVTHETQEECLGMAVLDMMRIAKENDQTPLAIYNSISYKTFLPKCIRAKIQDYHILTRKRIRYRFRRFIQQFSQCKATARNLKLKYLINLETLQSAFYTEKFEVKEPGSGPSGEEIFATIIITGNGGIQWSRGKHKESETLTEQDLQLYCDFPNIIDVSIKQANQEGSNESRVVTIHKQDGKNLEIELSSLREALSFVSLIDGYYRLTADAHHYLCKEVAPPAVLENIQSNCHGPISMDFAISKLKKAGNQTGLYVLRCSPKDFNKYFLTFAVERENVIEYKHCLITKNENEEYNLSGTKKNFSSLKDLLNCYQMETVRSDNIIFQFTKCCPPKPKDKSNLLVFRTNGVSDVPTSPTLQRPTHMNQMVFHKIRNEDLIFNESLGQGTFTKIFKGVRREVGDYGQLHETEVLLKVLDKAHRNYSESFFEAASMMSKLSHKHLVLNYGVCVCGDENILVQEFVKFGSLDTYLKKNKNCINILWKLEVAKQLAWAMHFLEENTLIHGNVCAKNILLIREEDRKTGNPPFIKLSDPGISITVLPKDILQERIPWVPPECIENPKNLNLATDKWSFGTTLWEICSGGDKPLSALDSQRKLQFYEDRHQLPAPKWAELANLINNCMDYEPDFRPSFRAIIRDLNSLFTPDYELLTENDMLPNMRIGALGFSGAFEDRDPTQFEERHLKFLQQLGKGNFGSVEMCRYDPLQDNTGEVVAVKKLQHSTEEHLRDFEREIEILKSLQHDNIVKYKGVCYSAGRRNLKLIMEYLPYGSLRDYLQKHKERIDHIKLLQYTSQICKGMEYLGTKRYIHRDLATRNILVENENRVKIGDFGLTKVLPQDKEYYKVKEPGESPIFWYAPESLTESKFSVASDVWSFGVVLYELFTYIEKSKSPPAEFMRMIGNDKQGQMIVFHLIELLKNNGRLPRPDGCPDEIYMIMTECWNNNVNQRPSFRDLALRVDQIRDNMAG

MERTK = MERTK (UniProt Q12866); assay: as above
c-Abl (mouse) = assay: as above
c-Src = assay: as above
Grb2 SH2 = Grb2 SH2 (UniProt P62993); assay: SH2 binding enrichment of the phosphorylated peptide, bacterial display (enrichment ratio); higher = better substrate or ligand; peptides without Tyr show the background
SHP2-C SH2 = assay: as above
c-Src SH2 = assay: as above
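Throughout, for SH2 binding enrichment of the phosphorylated peptide, bacterial display: peptide library displayed on the E. coli surface as eCPX fusions, selected cells deep-sequenced, score is each peptide's frequency after selection divided by its frequency in the input.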
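Throughout, for phosphorylation enrichment, bacterial display: 11-residue human phosphosite peptides and single-mutation variants displayed on the E. coli surface, counted by deep sequencing, each peptide's frequency after selection divided by its frequency in the unselected input library; frequency after pTyr selection over input frequency; kinase dosed for 20-30% of maximal phosphorylation in three min.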

EPHB1, sequence (P54762 whole entry, looked up): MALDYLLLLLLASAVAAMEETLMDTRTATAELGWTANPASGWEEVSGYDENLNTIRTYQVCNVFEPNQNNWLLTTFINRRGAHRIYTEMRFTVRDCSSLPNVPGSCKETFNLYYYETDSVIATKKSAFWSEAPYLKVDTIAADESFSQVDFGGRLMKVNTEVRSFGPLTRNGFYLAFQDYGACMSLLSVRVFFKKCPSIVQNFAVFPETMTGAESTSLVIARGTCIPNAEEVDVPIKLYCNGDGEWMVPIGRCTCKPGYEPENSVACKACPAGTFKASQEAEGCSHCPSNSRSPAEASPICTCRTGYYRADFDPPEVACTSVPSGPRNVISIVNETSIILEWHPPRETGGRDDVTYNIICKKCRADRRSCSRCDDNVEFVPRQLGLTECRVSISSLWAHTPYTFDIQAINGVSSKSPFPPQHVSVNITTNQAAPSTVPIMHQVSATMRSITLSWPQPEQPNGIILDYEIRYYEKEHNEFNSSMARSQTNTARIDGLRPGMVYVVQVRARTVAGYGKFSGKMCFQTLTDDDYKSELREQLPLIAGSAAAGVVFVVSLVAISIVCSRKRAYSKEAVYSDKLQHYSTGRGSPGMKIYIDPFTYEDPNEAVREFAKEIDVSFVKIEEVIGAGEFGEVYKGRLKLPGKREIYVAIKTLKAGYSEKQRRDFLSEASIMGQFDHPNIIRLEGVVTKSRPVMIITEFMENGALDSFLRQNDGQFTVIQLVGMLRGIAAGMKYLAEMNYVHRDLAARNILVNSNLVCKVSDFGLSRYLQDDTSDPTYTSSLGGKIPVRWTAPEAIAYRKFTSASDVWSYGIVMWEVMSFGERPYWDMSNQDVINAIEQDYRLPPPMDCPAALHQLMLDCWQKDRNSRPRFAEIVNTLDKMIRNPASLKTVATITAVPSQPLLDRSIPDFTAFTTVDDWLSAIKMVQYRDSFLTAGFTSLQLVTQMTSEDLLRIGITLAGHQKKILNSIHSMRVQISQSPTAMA
FGFR1, sequence (P11362 whole entry, looked up): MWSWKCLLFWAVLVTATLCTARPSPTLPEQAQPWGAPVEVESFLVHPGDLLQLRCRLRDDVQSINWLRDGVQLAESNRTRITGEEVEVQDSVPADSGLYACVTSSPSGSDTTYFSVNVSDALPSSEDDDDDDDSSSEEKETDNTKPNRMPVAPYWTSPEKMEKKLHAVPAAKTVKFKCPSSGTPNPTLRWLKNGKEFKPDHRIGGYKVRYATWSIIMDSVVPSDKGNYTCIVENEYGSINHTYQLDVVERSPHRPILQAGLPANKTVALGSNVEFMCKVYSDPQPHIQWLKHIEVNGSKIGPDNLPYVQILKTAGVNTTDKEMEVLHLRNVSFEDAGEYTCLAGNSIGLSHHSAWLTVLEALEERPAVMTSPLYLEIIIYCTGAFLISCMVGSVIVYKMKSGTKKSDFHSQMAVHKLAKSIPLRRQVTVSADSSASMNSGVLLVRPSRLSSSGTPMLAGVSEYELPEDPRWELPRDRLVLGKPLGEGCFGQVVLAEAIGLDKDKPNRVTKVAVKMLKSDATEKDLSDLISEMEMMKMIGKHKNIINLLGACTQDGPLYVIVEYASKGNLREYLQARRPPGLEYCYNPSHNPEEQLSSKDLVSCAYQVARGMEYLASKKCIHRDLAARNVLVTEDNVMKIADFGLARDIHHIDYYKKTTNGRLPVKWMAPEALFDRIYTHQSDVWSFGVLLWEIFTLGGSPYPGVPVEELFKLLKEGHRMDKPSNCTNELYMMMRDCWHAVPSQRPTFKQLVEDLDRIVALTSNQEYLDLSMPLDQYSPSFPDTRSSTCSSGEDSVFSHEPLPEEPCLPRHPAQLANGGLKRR
EPHB2, sequence (P29323 whole entry, looked up): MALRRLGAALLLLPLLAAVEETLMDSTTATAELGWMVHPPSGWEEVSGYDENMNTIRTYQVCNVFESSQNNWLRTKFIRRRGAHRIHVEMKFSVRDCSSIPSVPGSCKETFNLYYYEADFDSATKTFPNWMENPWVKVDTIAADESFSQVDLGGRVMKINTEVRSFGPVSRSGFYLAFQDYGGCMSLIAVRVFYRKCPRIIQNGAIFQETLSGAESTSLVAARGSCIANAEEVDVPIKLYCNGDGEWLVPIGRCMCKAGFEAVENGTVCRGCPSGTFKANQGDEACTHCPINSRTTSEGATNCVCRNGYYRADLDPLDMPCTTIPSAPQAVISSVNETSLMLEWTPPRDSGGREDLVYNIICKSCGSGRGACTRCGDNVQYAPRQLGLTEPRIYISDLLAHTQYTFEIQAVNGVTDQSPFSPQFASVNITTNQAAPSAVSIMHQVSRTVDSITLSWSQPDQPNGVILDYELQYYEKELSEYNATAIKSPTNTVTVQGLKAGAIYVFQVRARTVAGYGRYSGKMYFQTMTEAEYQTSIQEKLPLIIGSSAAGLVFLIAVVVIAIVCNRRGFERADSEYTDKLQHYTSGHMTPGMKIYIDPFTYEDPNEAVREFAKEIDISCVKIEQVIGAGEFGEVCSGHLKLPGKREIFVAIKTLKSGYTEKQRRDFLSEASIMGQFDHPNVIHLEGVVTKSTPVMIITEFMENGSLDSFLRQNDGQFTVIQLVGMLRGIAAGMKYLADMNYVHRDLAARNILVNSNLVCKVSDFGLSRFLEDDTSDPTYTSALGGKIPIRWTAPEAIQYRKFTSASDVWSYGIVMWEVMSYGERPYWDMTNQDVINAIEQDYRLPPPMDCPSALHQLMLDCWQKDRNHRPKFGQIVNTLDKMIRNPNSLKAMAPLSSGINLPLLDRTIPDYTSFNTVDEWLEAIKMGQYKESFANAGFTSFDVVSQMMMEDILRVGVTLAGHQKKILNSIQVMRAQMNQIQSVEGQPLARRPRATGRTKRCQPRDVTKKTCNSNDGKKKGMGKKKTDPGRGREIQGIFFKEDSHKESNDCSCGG

SH2 binding enrichment (Grb2 SH2) | SH2 binding enrichment (SHP2-C SH2) | SH2 binding enrichment (c-Src SH2) | Sequence | phosphorylation enrichment (AncSZ) | phosphorylation enrichment (EPHB1) | phosphorylation enrichment (EPHB2) | phosphorylation enrichment (FGFR1) | phosphorylation enrichment (FGFR3) | phosphorylation enrichment (Fer (mouse)) | phosphorylation enrichment (Fes) | phosphorylation enrichment (Fyn) | phosphorylation enrichment (Hck) | phosphorylation enrichment (Jak2) | phosphorylation enrichment (MERTK) | phosphorylation enrichment (c-Abl (mouse)) | phosphorylation enrichment (c-Src)
1.59 | 1.52 | 0.837 | VMIFAYLLHRG [PTEN_Y138_C136Y_YF] | 0.807 | 0.447 | 0.392 | 0.383 | 0.422 | 0.378 | 0.828 | 0.352 | 0.406 | 0.739 | 0.325 | 0.781 | 0.415
0.847 | 0.739 | 0.426 | ENRKFYKDLKE [PURA_Y156_M157K_YF] | 0.532 | 0.312 | 0.552 | 0.401 | 0.493 | 0.387 | 0.699 | 0.418 | 0.473 | 0.536 | 0.589 | 0.431 | 0.422
0.829 | 0.734 | 1.15 | ESDYTYSSSYE [SRPK2_Y427] | 2.42 | 1.3 | 1.45 | 1.12 | 1.06 | 0.68 | 1.15 | 1.11 | 0.86 | 0.852 | 0.486 | 0.725 | 1.43
1.11 | 0.97 | 0.678 | NCLRVYVAGRF [CRB1_Y711_E710V] | 1.71 | 0.497 | 0.627 | 0.447 | 0.758 | 0.434 | 1.15 | 0.535 | 0.414 | 1.08 | 0.339 | 1.03 | 0.567
1.04 | 1.04 | 0.861 | RKLASYRSCLL [DHX37_Y1080] | 0.75 | 0.321 | 0.492 | 0.581 | 0.617 | 0.768 | 0.811 | 0.515 | 0.468 | 0.633 | 0.356 | 0.627 | 0.486
0.891 | 0.715 | 0.497 | KSSDVYVSFDF [SORL1_Y136_YF] | 1.21 | 1.73 | 1.11 | 3.78 | 2.81 | 4.79 | 1.22 | 5.77 | 3.02 | 0.983 | 3.34 | 0.935 | 4.3
0.7 | 0.553 | 0.423 | QTEAEYRFIYM [PTPN11_Y511_Q510E] | 1.55 | 1.09 | 0.65 | 4.4 | 3.09 | 1.11 | 1.86 | 0.828 | 0.886 | 1.51 | 0.641 | 1.26 | 0.878
0.747 | 0.707 | 0.396 | SVKVFYKKCWS [EPHA7_Y202_YF] | 1.14 | 0.621 | 0.647 | 0.507 | 0.841 | 0.532 | 1.49 | 0.424 | 0.457 | 1.21 | 0.409 | 0.965 | 0.59
0.671 | 0.499 | 0.335 | PTFKHYANSTQ [SLC12A3_Y70_E68K_YF] | 0.651 | 0.603 | 0.506 | 0.574 | 0.599 | 0.509 | 0.774 | 0.482 | 0.507 | 0.455 | 0.375 | 0.591 | 0.365
0.766 | 0.632 | 0.666 | KKGMIYGGGGG [PSME1_Y249_T244K] | 0.467 | 0.3 | 0.363 | 0.407 | 0.359 | 0.365 | 0.495 | 0.388 | 0.466 | 0.487 | 0.381 | 0.447 | 0.442
0.962 | 0.85 | 1.03 | VLPIDYYFPPQ [AR_Y552] | 4.75 | 3.48 | 3.36 | 15.4 | 12.6 | 0.694 | 1.08 | 0.687 | 0.869 | 6.26 | 2.47 | 1.06 | 1.28
0.987 | 1.08 | 0.561 | KAIMTYVFSFY [ACTN4_Y260_S262F] | 1.19 | 0.63 | 0.592 | 0.559 | 0.794 | 0.54 | 1.27 | 0.438 | 0.464 | 1.06 | 0.436 | 0.966 | 0.507
0.697 | 0.506 | 0.402 | VEDHDYEGGIG [TKT_Y564_Y563D] | 1.49 | 0.737 | 0.785 | 0.571 | 0.874 | 0.602 | 1.45 | 0.518 | 0.609 | 1.24 | 0.517 | 1.01 | 0.624
1.01 | 0.688 | 0.505 | GFEEAYSVSKK [PAFAH1B1_Y28_F31S_YF] | 0.697 | 0.355 | 0.353 | 0.374 | 0.492 | 0.39 | 0.764 | 0.403 | 0.487 | 0.853 | 0.377 | 0.464 | 0.65
0.677 | 0.513 | 0.432 | EGELRYMHSRV [ABCD1_Y281_K276E] | 0.688 | 0.516 | 0.439 | 0.428 | 0.485 | 0.395 | 0.689 | 0.507 | 0.34 | 0.86 | 0.35 | 0.519 | 0.373
0.669 | 0.52 | 0.571 | LGEGSYGKVKE [STK11_Y60] | 1.75 | 1.29 | 0.868 | 1.21 | 0.783 | 0.574 | 1.5 | 0.939 | 0.862 | 1.58 | 0.887 | 1.12 | 0.863
1.31 | 1.18 | 1.28 | WLQKLYNNFVN [MYO5C_Y526] | 1.25 | 0.528 | 0.57 | 0.459 | 0.774 | 0.483 | 1.4 | 0.472 | 0.655 | 1 | 0.429 | 0.874 | 0.501

SH2 binding enrichment (Grb2 SH2) | SH2 binding enrichment (SHP2-C SH2) | SH2 binding enrichment (c-Src SH2) | Sequence | phosphorylation enrichment (AncSZ) | phosphorylation enrichment (EPHB1) | phosphorylation enrichment (EPHB2) | phosphorylation enrichment (FGFR1) | phosphorylation enrichment (FGFR3) | phosphorylation enrichment (Fer (mouse)) | phosphorylation enrichment (Fes) | phosphorylation enrichment (Fyn) | phosphorylation enrichment (Hck) | phosphorylation enrichment (Jak2) | phosphorylation enrichment (MERTK) | phosphorylation enrichment (c-Abl (mouse)) | phosphorylation enrichment (c-Src)
1.04 | 0.722 | 0.519 | VFPATYHPDHW [EFCAB12_Y544_YF] | 0.677 | 0.678 | 0.383 | 0.467 | 0.542 | 0.347 | 0.792 | 0.469 | 0.421 | 0.629 | 0.385 | 0.604 | 0.458
0.789 | 0.353 | 0.338 | QRAADYFSQQM [GBP6_Y333_YF] | 1 | 0.469 | 0.57 | 0.558 | 0.634 | 0.491 | 0.921 | 0.546 | 0.488 | 0.698 | 0.352 | 0.586 | 0.687
1.04 | 0.804 | 0.438 | KALKQYRAGPS [DDX27_Y763] | 0.473 | 0.34 | 0.312 | 0.355 | 0.368 | 0.389 | 0.553 | 0.43 | 0.454 | 0.545 | 0.391 | 0.531 | 0.407
0.788 | 0.636 | 0.534 | AAVDTVCRHNY [HLA-DRB1_Y107_Y107V] | 0.645 | 0.463 | 0.429 | 0.612 | 0.673 | 0.417 | 0.842 | 0.494 | 0.64 | 0.739 | 0.511 | 0.795 | 0.473
0.909 | 0.895 | 0.524 | IKNPQYFSDAC [NTRK1_Y496_E492K] | 0.648 | 0.37 | 0.415 | 0.548 | 0.591 | 0.37 | 0.74 | 0.464 | 0.418 | 0.634 | 0.344 | 0.464 | 0.473
0.863 | 0.617 | 0.68 | IEDPYYGNDFD [ACP1_Y133_S137F] | 1.65 | 0.832 | 0.859 | 1.6 | 1.7 | 0.786 | 1.47 | 1.65 | 1.02 | 1.43 | 0.513 | 0.93 | 2.94
0.721 | 0.647 | 0.452 | FASTGYGIAIQ [GRIN2B_Y762] | 0.655 | 0.575 | 0.456 | 0.557 | 0.55 | 0.375 | 0.92 | 0.499 | 0.484 | 0.605 | 0.408 | 0.739 | 0.408
4.77 | 0.777 | 2.07 | INQGPYENHSV [ATP6V1B1_Y462_R465H] | 0.646 | 0.436 | 0.639 | 0.441 | 0.524 | 9.94 | 0.804 | 0.471 | 0.4 | 0.68 | 0.55 | 0.54 | 0.524
1.18 | 0.863 | 0.739 | KQFWRYFPGNL [SLC25A4_Y112_A114P] | 0.904 | 0.625 | 0.521 | 0.444 | 0.676 | 0.469 | 1.02 | 0.35 | 0.524 | 0.919 | 0.402 | 0.695 | 0.496
1.11 | 1.18 | 0.874 | CTTIHYNYMWN [TP53_Y234_C238W] | 1.21 | 1.12 | 0.746 | 1.21 | 0.976 | 1.77 | 1.32 | 0.569 | 0.544 | 0.966 | 1.82 | 0.824 | 0.496
0.628 | 0.549 | 0.883 | PGAPAYCVLME [MYO5A_Y1245_R1246C] | 1.64 | 3.07 | 1.5 | 1.58 | 1.64 | 0.876 | 1.44 | 1.12 | 1.38 | 1.25 | 4.03 | 1.27 | 0.964
0.642 | 0.714 | 0.658 | RGRSTCYWPRP [GAGE12J_Y9_Y9C] | 1.06 | 0.688 | 0.6 | 0.704 | 0.981 | 0.582 | 0.756 | 0.599 | 0.736 | 0.655 | 0.732 | 0.623 | 0.816
0.688 | 0.782 | 0.615 | RSGNCYLDIRP [FBN1_Y1535] | 1.06 | 0.58 | 0.7 | 0.802 | 0.728 | 0.514 | 1.27 | 0.567 | 0.544 | 1.45 | 0.633 | 1.04 | 0.583
0.909 | 1.06 | 1.05 | PKEQKYSFLQN [GH1_Y68] | 0.972 | 0.465 | 0.951 | 0.719 | 0.978 | 0.627 | 0.862 | 0.692 | 0.577 | 0.688 | 1.18 | 0.625 | 0.554
0.961 | 0.661 | 1.24 | CEHFSYYGMKA [SLC15A2_Y60_R57H] | 1.06 | 0.52 | 0.644 | 5.26 | 3.17 | 0.812 | 0.933 | 0.866 | 1.93 | 5.02 | 1.54 | 0.708 | 2.37
0.586 | 0.587 | 0.326 | HFNLTYRILSF [MMP23B_Y95] | 1.6 | 0.826 | 0.615 | 0.486 | 1.19 | 0.726 | 1.8 | 0.391 | 0.644 | 1.8 | 0.481 | 1.47 | 0.636
